We go through three molecules from paper PMC10267678, “Proteomic Profiling of Extracellular Matrix Components from Patient Metastases Identifies Consistently Elevated Proteins for Developing Nanobodies That Target Primary Tumors and Metastases” (Cancer Research, 2023).

Experiment [1] deals with T1, mouse TNC on tissue sections of lung metastases derived from murine TNBC cell line 4T1 (Mus musculus (4T1 metastases in BALB/c), UniProt Q80YX1).
T1 construct: tenascin-C, mouse, endogenous in 4T1 lung metastases; source: endogenous, 4T1 lung metastases in BALB/c mice, tissue sections
The experiment is described as follows: immunostaining of cells or tissue; IHC with the nanobodies on tissue sections of lung metastases (LM2 in NSG mice; 4T1 in BALB/c mice). Particulars: one partner purified.

In experiment [2] the target is T2, full-length human TNC protein (Homo sapiens, UniProt P24821).
T2 construct: tenascin-C, human, full-length recombinant protein (Sigma); also called human tenascin-C; hTNC; source: bought: Sigma-Aldrich (purified, recombinant)
The experiment is described as follows: far-Western, overlay or dot blot; immunoblot of human TNC protein probed with the nanobodies. Particulars: both partners purified. A general note: Immunoblotting shows a protein as a band on a membrane.

Experiment [3] has as its target T3, human TNC in the ECM of tumors and lung metastases derived from human TNBC cell line LM2 (Homo sapiens (LM2 cells), UniProt P24821).
T3 construct: tenascin-C, human, made by LM2 human TNBC cells in xenografts; also called hTNC; TNC fibrils; source: endogenous, ECM of LM2 (LM2-TGL-ZsGreen) tumors and lung metastases in NSG mice
The experiment is described as follows: two-photon microscopy of resected organs after intravenous injection of labelled nanobody; Alexa-647 labelled nanobodies injected via the tail vein into NSG mice with LM2-TGL-ZsGreen tumors; organs resected 2 hours after injection and imaged. Conditions: one partner purified.

T3 sequence (P24821 23-2201): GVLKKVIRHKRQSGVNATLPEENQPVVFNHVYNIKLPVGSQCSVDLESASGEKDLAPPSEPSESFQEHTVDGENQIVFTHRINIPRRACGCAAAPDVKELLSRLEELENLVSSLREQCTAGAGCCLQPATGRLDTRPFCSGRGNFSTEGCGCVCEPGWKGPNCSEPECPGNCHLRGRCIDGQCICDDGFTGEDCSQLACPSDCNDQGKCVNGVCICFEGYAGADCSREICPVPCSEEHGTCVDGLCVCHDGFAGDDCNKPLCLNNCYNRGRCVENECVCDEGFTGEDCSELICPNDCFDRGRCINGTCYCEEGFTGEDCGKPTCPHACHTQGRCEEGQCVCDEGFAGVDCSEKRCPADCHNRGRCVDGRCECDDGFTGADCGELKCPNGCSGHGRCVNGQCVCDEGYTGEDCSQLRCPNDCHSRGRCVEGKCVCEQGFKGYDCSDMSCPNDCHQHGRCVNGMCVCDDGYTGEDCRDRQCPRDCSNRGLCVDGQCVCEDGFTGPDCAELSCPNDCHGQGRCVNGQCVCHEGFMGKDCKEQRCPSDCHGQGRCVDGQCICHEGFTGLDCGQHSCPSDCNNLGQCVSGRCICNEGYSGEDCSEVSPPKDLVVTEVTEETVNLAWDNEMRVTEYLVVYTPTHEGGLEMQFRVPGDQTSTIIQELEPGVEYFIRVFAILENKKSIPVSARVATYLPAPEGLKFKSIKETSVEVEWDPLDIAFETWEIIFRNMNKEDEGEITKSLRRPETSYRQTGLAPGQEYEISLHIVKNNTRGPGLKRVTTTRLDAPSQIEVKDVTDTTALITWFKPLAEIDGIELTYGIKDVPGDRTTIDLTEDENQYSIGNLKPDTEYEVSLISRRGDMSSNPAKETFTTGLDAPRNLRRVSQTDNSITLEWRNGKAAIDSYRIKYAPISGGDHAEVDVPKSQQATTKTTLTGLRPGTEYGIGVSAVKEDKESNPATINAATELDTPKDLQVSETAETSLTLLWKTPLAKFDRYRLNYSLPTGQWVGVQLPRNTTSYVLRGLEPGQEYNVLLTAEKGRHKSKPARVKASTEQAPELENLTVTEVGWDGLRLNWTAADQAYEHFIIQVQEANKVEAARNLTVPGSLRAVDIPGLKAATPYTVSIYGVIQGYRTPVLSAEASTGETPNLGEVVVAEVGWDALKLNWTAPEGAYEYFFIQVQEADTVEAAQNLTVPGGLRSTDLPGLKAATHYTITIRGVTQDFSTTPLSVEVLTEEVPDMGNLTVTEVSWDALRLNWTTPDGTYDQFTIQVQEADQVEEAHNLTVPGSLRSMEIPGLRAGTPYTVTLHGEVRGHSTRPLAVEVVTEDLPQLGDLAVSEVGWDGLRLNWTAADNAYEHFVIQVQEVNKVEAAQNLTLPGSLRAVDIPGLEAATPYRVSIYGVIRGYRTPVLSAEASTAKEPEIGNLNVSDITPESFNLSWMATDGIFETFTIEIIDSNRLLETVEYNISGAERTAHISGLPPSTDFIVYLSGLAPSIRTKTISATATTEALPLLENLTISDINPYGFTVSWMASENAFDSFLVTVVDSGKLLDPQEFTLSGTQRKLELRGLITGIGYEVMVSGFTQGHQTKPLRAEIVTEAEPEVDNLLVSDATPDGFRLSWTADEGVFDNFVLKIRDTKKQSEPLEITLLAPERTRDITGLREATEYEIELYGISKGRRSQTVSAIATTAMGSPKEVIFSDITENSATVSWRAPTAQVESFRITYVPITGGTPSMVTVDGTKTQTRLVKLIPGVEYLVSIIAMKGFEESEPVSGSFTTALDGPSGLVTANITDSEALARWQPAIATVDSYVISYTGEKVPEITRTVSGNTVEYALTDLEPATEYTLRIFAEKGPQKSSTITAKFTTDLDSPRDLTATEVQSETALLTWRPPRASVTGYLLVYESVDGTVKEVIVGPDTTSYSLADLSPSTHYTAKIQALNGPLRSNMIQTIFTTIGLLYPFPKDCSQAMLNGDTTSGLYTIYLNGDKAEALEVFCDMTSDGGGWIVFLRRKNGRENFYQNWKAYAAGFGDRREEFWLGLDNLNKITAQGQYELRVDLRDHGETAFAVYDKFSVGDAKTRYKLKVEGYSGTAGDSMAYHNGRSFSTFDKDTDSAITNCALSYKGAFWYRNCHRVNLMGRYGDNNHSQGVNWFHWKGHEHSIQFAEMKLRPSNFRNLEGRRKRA
T2 sequence (P24821 23-2201): as above
T1 sequence (Q80YX1 23-2110): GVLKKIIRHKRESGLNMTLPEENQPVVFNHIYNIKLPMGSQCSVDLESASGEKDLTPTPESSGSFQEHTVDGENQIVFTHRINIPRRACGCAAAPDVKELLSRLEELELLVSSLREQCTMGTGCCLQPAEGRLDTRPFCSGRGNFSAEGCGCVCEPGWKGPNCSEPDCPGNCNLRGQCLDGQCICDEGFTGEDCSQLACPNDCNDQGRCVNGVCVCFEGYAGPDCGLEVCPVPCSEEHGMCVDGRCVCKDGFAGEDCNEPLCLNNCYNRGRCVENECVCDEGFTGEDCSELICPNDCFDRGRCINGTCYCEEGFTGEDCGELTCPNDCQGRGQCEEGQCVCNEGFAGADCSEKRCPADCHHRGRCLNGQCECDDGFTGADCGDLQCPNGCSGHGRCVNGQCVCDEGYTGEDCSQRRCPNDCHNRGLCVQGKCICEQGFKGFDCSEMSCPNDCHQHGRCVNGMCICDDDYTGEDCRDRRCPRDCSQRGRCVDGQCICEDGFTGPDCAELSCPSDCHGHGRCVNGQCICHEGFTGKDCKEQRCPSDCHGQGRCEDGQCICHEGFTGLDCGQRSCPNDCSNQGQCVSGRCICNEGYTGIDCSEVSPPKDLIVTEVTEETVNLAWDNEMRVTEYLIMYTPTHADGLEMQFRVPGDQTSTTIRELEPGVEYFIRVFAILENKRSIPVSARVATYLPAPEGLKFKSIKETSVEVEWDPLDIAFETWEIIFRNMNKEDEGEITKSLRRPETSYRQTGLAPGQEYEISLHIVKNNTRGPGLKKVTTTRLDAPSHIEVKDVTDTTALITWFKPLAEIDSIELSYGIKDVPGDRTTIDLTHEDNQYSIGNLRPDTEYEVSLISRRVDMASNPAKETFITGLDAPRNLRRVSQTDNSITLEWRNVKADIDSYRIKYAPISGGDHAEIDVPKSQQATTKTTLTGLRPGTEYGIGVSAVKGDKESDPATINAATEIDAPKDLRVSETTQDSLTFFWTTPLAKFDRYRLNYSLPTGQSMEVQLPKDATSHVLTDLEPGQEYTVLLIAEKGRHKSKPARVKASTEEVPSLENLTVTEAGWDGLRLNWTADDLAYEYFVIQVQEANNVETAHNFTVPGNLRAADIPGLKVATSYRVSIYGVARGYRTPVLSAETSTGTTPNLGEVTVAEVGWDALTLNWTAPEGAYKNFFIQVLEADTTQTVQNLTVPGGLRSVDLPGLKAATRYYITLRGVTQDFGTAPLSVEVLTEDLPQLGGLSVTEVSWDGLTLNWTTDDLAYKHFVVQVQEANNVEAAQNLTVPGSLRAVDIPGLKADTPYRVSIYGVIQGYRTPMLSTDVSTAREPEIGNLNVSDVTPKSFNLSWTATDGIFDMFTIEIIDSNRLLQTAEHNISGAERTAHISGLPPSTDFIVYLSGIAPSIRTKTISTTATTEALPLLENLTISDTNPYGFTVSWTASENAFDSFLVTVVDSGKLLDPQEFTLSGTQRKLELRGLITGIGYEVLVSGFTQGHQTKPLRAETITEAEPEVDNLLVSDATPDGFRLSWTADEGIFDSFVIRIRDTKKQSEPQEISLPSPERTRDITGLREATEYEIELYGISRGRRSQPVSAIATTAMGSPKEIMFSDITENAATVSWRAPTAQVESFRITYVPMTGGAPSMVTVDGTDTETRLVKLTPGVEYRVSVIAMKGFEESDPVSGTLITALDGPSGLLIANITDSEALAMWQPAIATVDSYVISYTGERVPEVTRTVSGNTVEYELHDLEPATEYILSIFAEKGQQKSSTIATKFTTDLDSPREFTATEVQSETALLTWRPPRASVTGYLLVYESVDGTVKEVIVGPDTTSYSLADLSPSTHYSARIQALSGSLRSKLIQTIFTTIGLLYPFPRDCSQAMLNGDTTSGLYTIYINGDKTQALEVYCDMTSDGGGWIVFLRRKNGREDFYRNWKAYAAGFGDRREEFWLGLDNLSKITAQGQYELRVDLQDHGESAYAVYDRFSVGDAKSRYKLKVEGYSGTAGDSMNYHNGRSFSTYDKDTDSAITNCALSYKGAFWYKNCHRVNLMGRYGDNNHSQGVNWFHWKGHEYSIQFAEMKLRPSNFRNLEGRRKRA

B1: NJT6 (VHH)
VHH: QVQLVETGGDLVQPGGSLRLSCAASGLTLDYYAIGWVRQAPGKEREGVSCITPQDGNTYYDDSVMGRFTILRDNAKNMVYLQMNNLKPEDTAVYFCAAAGALTLDPSEYEYWGQGTQVTVSS
notes: The label differs between experiments (biotin, Alexa-647); also called anti-TNC nanobody NJT6; 64Cu-NJT6; source: selected from alpaca phage-display library B; expressed and purified by methods previously described; not shown: sortase tag, C-terminal, kept
On to B1, for which the binding result is “no binding” in experiment [1], “binds” in experiment [2] and “binds” in experiment [3].

B2: NJT3 (VHH)
VHH: QVQLVETGGGLAQAGGSLRLSCAASGRTLSGYAMGWFRQAPGKEREFVAAISWSGRNTYYDYTVQGRFTISKDNAKNTVNLQMNSLKPEDTAVYYCAVSRSLDEFGDGYEMDYWGDGTQVTVSS
notes: The label differs between experiments (biotin, Alexa-647); also called anti-TNC nanobody NJT3; 64Cu-NJT3; source: selected from alpaca phage-display library B; expressed and purified by methods previously described; not shown: sortase tag, C-terminal, kept
B2: the binding result was “no binding” in experiment [1], “binds” in experiment [2] and “binds” in experiment [3].

B3: NJT4 (VHH)
VHH: QVQLVESGGGLVQPGGSLRLSCAASGFTFSSYTMRWYRQAPGKERELVAFIGVAGGSTKYADSVKGRFTISRDNTKNTVYLQMNTLKPEDTAVYYCYAPLTPYWGQGTQVTVSS
notes: The label differs between experiments (biotin, Alexa-647); also called anti-TNC nanobody NJT4; 64Cu-NJT4; source: selected from alpaca phage-display library B; expressed and purified by methods previously described; not shown: sortase tag, C-terminal, kept
Turning to B3, the binding result in experiment [1] is “no binding”; in experiment [2] it was “binds”; in experiment [3], “binds”.
